Measurements as given in the supplement of paper PMC9170038.

System: MS2 coat protein
Assay: apparent KD of MS2 coat protein; designed switch direction (-1 OFF switch, 1 ON switch): -1; higher = weaker reporter binding
Method in brief: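 The apparent KD reported per design is the median over clusters of curve fits to normalised cluster fluorescence. The RNA switches were transcribed on Illumina chips by stalled E. coli RNA polymerase. SNAP-549-labelled MS2 coat protein was titrated from 0.7 or 1.5 nM, doubling up to 3 µM, in Tris-HCl pH 7.5 buffer containing KCl, MgCl2, BSA, DTT, tRNA and Tween-20, with no input, 200 uM small-molecule ligand, or an oligonucleotide input.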

[1] = input ligand: microRNA oligo, concentration not stated
[2] = Eterna round: R95, input ligand: microRNA oligo, concentration not stated
[3] = Eterna round: R95, input ligand: FMN 200 uM
[4] = Eterna round: R95, input ligand: none

| Sequence | apparent KD of MS2 coat protein (input ligand: FMN 200 uM) [nM] | apparent KD of MS2 coat protein [1] [nM] | apparent KD of MS2 coat protein (input ligand: none) [nM] | apparent KD of MS2 coat protein [2] [nM] | apparent KD of MS2 coat protein [3] [nM] | apparent KD of MS2 coat protein [4] [nM] |
| --- | --- | --- | --- | --- | --- | --- |
| AUUGAUAGCACAGGAUAUUGAGAUUUGAAUUGACAAGAAGGGUGUACAUGAGGAUCACCCAUGUAAUGGUUGCCUCGUUGAUUA [JR_ExcNG1_Sub004] (Eterna round: R96, puzzle: Exclusion NG 1) | 1070 | 125 | 148 | – | – | – |
| ACAUGAGGAUCACCCAUGUCCGUCUGAUCUGUCUCGGCUGUCGAGGAUAUAGCCCGGUAUCCGCGCUAGAAGGUGGGAGUCGGA [Aenatbe mod 100] (Eterna round: R96, puzzle: Exclusion NG 3) | 34.9 | 33.4 | 42 | – | – | – |
| CUUUUGUGAGGAUAUCAGUAGUAAAUAAAUAAAAUUACUACUGAGAAGGCACAUGAGGAUCACCCAUGUUCCUC [salish99_ex4_r3_015] (puzzle: Exclusion 4) | – | – | – | 37.4 | – | – |
| AGUAUGCGUGUCAGGAUAUCAAUGGCUCUACCCAAUGAGAAGGGACAUGAGGAUCACCCAUGUAUGAGCCUAAA [Zatelaveus] (puzzle: Brourd's mod of Exclusion 4) | – | – | – | 14.1 | 15.9 | 14.5 |
| GCAGAAAGUGUAGGAUAUAUAAAUUAGCGGAAACGCAAUACAUGAGGAUCACCCAUGUUUCCUCAAUAGAAGGGCAAAAGCUGC [EXNG2 V2 e] (Eterna round: R96, puzzle: Exclusion NG 2) | 88 | 37.9 | 79.8 | – | – | – |
| UCCCAGCUAGGAUAUACAUGAGGAUCACCCAUGUCGAUCCACGGCACCCGAGUAUUGAGUAGAAGGAGUCAGGA [Eternabot (L2) Solution 69] (Eterna round: R97, puzzle: Exclusion 3) | 25.1 | – | 23.1 | – | – | – |
| UAACAAGCUUAAAGAUCCCACAUGAGGAUCACCCAUGUGCUCGUCUUAUAACGUACUGUGACGAAAGUCACGGUACG [JL TOV1 3.13] (Eterna round: R97, puzzle: Sensor, turn-off variant 1) | 29.2 | – | 26.3 | – | – | – |
| UUUUUCGAACAAGCUUCGUACAUGAGGAUCACCCAUGUUUUUAGAUUUGAGUAGGUUUGUAUGGAAGUUCGUCUUAU [JR_SV3TOV1_Sub087] (puzzle: Sensor v3, turn-off variant 1) | – | – | – | 159 | 32.3 | 34.3 |
| GUUGGUAAGUCAGGAUAUCCCUGUAAUGGCAGCGGAGAAGGGACAUGAGGAUCACCCAUGUGAACCUCCGGCGGGUAAACCCGC [Issoange] (Eterna round: R96, puzzle: Exclusion NG 1) | 103 | 20.5 | 37.1 | – | – | – |
| CGGUGCUGAGGAUAUACAUGAGGAUCACCCAUGUGUUCCAGCUAGCGUACUGGCAGAUGUAGAAGGCGGUACUG [JL-ex3-3.42 Brourd mod] (puzzle: Exclusion 3) | – | – | – | 19.9 | 78.9 | 19 |
| UAUUCACAUGAGGAUCACCCAUGUCAGGAUAUAGUCGAUAUAUGGAAACAUAUAUCGACUAGAAGGGACUAGCG [Jieuxxlusion 12 - Jieux - Exclusion 1] (Eterna round: R97, puzzle: Exclusion 1) | 64.5 | – | 47.4 | – | – | – |
| UUCUGCACGCUGCGGUCCUACAUGAGGAUCACCCAUGUGGUCUGGUGGCGUGGGUCGCCGGACUUGGCUCGUCUUGA [salish99_S_TOV1_R5_044] (Eterna round: R97, puzzle: Sensor, turn-off variant 1) | 18.2 | – | 19.1 | – | – | – |
| AGUUGGCGAGGAUAUACAUGAGGAUCACCCAUGUAAAAAAAAAAAAAAAAAACUUCAUGUAGAAGGCGCUGACA [Starry Exclusion 3.4 (biggestlegoheroicafanever round 1 mod)] (Eterna round: R96, puzzle: Exclusion 3) | 327 | 200 | 373 | – | – | – |
| AGGUGUAGAGGAUAUCGAGUCCUUUACAUGAGGAUCACCCAUGUCCUGGGCACCCAGGACCGAGAAGGCUACACCA [Omei Ex5 D32] (Eterna round: R97, puzzle: Exclusion 5) | 353 | – | 223 | – | – | – |
| UUGUAGUCAGGAUAUACAUGAGGAUCACCCAUGUAAAAUUUUAAUUUAAUUUGAAGGUGUAGAAGGGACCAGUU [Ex3 #24] (Eterna round: R97, puzzle: Exclusion 3) | 36.5 | – | 43.4 | – | – | – |
| UUAUUAAUUAAUAUUAUAAGAUCACAUGAGGAUCACCCAUGUCAGGAUAUCAGCUCGUGUAGAGCUGAGAAGGGACAAAUAAUA [ExNG3/15-B3] (Eterna round: R96, puzzle: Exclusion NG 3) | 576 | 451 | 306 | – | – | – |
| UCUCGGUAAGGAUAUGCGCCGGGAUGAAGAUCCCGAAGCAUGCAGAAGGUACAUGAGGAUCACCCAUGUCUGUU [Eternabot (L1) Solution 76] (Eterna round: R97, puzzle: Exclusion 4) | 47.2 | – | 20.5 | – | – | – |
| GAAAACGGAGAGGAUAUUUGAGAUCAAAGCUCCAAAGAAGGCUCCACAUGAGGAUCACCCAUGUGGUCUUCAAG [Mat - Exclusion 6 - JL Mod - D14] (Eterna round: R97, puzzle: Exclusion 6) | 86.7 | – | 17 | – | – | – |
| CUAGAUCUUCGGAUCUAGUACAUGAGGAUCACCCAUGUGACGAGUUGAUCCUCAUACAAGCUUUUUGCUCGUCUUAU [Sensor v3 - Turn-off variant 1 - 16] (puzzle: Sensor v3, turn-off variant 1) | – | – | – | 21.3 | 19.3 | 11.9 |
| CUGAGCAGACGGAGAUCCAACAUGAGGAUCACCCAUGUCUCAAAAGCUUUUUGCUCGUCUUAUUCUCCUCUGUUCUC [Ainre] (puzzle: Sensor v3, turn-off variant 1) | – | – | – | 33.3 | 14.3 | 12.5 |
| ACGGUGGUCCGAGAACAUGAGGAUCACCCAUGUGACAAAACCAAGGAUAUAGAAGGACCGCCCGACUAGAAGGUGGAAAGAAAA [Aresonen] (Eterna round: R96, puzzle: Exclusion NG 3) | 101 | 73.3 | 117 | – | – | – |
| AGCCACAGAGGAUAUACAUACAUCCAGUAGUUAAGAAUAUUACAUGAGGAUCACCCAUGUAGAAGGCUGUGGCA [Omei Ex2 BD B7] (Eterna round: R97, puzzle: Exclusion 2) | 352 | – | 35.4 | – | – | – |
| GUCGAGUGAGGAUAUGGUGAGUAGUGCCAGAGCGCUGCUCACCAGAAGGCACAUGAGGAUCACCCAUGUAUAGC [Mat - Exclusion 4 - Mod of JL - D13] (puzzle: Exclusion 4) | – | – | – | 15.2 | – | – |
| CGUGACUGAGGAUAUCUAUGAUAUCACAUGAGGAUCACCCAUGUCCAGCGAAAGCUGGAGGGAGAAGGCAGUCACG [Fiskers Ex 5 - 30] (puzzle: Exclusion 5) | – | – | – | 220 | 61.5 | 185 |
| GGUGGACAUGAGGAUCACCCAUGUGAGGAUAUCGGCUAUCUUAUCGCUGUCGGUUGCUCGAGAAGGCACAUUGU [Exclusion 1 V96] (puzzle: Exclusion 1) | – | – | – | 71.2 | – | – |
